According to patent US20130012427A1:

Key:
Experiment in all cases: cell-based or functional assay
[1] = target: human amylin 3(a) receptor (human calcitonin receptor co-expressed with RAMP-3) (human) (UniProt P30988)
[2] = target: human calcitonin (a) receptor (human) (UniProt P30988)
[3] = target: human amylin 3(a) receptor (human calcitonin receptor with RAMP-3) (human) (UniProt P30988)
human amylin 3(a) receptor (human calcitonin receptor with RAMP-3) (human), sequence (P30988 25-474, chain 1 of 2): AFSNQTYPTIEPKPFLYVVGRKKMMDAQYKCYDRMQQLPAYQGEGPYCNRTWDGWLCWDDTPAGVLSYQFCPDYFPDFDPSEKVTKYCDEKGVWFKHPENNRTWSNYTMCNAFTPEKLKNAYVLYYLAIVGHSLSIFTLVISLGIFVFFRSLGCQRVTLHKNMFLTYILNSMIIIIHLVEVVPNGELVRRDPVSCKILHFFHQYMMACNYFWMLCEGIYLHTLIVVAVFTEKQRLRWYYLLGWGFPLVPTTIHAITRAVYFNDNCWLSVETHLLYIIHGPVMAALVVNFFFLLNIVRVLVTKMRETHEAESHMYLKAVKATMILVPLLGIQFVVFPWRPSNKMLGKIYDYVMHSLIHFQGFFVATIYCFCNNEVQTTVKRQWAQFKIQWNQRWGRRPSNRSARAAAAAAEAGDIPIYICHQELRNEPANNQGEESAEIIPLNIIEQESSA
human amylin 3(a) receptor (human calcitonin receptor with RAMP-3) (human), sequence (O60896 24-148, chain 2 of 2, further chain): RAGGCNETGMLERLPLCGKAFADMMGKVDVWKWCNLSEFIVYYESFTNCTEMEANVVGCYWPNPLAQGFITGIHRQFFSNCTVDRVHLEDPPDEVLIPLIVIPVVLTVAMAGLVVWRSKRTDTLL

human calcitonin (a) receptor (human), sequence (P30988 25-474): as the sequence (P30988 25-474, chain 1 of 2) above
human amylin 3(a) receptor (human calcitonin receptor co-expressed with RAMP-3) (human), sequence (P30988 25-474, chain 1 of 2): as above
human amylin 3(a) receptor (human calcitonin receptor co-expressed with RAMP-3) (human), sequence (O60896 24-148, chain 2 of 2, further chain): as the sequence (O60896 24-148, chain 2 of 2, further chain) above

## N-alpha-(19-carboxynonadecanoyl)-Glu-Glu-Arg-[Glu1,Pro37]-pramlintide (peptide)
[1]
  Amylin receptor human EC50 (pM): 45 pM
[2]
  CTa receptor human EC50 (pM): 61.5 pM
[3]
  Amylin receptor human EC50 (pM): 45 pM
